# Columns and labels:
# [1] = molecular target: biotinylated His-tagged TGF-β1 LAP C4S (Homo sapiens (Human)) (UniProt P01137); test: ELISA, neutravidin plate with biotinylated His-tagged TGF-β1 LAP C4S; antibody dilution 1:5,000; fluorescent secondary detection
# [2] = molecular target: biotinylated His-tagged TGF-β1 LAP C4S (Homo sapiens (Human)) (UniProt P01137); test: ELISA, neutravidin plate with biotinylated His-tagged TGF-β1 LAP C4S; antibody dilution 1:1,000; fluorescent secondary detection
# [3] = molecular target: biotinylated His-tagged TGF-β1 LAP C4S (Homo sapiens (Human)) (UniProt P01137); test: ELISA, neutravidin plate with biotinylated His-tagged TGF-β1 LAP C4S; antibody dilution 1:10,000; fluorescent secondary detection
# [4] = molecular target: proTGF-β1 complexed with sGARP (Homo sapiens (Human)) (UniProt Q14392); test: ELISA with increasing concentrations of MAB246
# Sequence of proTGF-β1 complexed with sGARP (Homo sapiens (Human)) (Q14392 18-627 limits assumed, chain 1 of 2): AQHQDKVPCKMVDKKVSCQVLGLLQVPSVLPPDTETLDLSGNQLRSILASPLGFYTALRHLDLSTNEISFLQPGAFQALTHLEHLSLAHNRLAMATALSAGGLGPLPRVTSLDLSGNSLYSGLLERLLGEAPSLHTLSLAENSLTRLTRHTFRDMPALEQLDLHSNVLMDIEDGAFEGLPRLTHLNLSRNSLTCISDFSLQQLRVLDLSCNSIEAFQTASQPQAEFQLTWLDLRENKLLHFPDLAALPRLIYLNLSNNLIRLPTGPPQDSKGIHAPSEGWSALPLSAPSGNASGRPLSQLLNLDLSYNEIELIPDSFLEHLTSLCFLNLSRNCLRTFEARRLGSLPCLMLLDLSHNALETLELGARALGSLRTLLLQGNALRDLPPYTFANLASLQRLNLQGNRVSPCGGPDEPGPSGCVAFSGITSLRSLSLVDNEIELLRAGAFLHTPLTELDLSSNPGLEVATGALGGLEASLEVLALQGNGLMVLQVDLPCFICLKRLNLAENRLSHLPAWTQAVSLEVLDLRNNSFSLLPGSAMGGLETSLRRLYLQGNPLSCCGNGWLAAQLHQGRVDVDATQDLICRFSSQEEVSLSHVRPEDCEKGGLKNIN
# Sequence of proTGF-β1 complexed with sGARP (Homo sapiens (Human)) (chain, as listed by the source limits assumed, chain 2 of 2): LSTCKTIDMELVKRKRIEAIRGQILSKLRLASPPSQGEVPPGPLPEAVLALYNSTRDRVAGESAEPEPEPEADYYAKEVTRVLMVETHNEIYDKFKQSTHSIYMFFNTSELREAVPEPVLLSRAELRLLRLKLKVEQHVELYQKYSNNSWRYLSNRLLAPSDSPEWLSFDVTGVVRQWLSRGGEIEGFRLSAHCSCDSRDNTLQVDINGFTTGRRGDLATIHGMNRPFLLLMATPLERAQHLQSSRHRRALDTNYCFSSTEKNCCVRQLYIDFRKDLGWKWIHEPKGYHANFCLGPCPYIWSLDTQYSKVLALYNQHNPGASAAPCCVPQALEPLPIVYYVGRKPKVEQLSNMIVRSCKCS
# [5] = molecular target: LTBP1-proTGFβ1 (protein complex of the ELISA of Example 35) (UniProt Q14766); test: ELISA with increasing concentrations of MAB246
# Sequence of LTBP1-proTGFβ1 (protein complex of the ELISA of Example 35) (Q14766 347-1721 limits assumed, chain 1 of 2): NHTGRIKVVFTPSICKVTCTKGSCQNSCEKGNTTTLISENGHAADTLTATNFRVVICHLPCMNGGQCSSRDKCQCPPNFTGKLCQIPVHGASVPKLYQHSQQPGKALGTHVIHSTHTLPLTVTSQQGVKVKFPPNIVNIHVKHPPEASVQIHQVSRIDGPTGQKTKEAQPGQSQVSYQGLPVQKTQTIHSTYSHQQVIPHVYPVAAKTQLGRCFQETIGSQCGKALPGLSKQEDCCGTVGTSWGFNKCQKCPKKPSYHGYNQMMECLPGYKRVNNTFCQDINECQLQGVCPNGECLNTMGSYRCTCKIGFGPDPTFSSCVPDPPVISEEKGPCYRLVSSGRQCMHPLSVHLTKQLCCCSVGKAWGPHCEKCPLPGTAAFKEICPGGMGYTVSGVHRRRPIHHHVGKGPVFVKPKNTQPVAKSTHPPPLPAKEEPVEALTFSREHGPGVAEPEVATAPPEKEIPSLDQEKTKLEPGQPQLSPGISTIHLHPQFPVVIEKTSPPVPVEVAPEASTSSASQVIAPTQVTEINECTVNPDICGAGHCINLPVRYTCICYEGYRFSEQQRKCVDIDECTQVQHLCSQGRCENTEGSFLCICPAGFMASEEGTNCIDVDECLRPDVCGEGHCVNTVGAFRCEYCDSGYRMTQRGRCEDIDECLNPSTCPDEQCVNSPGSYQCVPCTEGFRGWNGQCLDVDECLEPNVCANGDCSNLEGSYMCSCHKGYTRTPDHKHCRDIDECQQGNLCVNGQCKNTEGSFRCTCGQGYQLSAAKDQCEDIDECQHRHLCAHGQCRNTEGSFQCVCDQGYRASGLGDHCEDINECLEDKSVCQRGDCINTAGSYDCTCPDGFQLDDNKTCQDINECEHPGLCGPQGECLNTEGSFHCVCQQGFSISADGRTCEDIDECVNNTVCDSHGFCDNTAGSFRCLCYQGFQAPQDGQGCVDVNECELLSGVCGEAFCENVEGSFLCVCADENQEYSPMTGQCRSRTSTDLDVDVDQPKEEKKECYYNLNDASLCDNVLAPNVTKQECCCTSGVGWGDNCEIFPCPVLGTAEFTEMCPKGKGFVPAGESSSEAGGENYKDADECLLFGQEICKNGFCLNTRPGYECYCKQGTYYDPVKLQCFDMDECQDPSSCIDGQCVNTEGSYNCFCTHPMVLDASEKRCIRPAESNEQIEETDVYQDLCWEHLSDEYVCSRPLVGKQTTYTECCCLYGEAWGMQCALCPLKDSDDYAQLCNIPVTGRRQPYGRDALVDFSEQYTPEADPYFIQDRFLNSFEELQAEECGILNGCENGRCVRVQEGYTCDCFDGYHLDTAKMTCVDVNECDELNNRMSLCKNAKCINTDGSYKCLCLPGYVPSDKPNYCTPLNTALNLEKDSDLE
# [6] = molecular target: TGF-β1 LAP complexed with sGARP (Homo sapiens (Human)) (UniProt Q14392); test: ELISA with increasing concentrations of MAB246
# Sequence of TGF-β1 LAP complexed with sGARP (Homo sapiens (Human)) (Q14392 18-627 limits assumed, chain 1 of 2): as the sequence (Q14392 18-627 limits assumed, chain 1 of 2) above
# Sequence of TGF-β1 LAP complexed with sGARP (Homo sapiens (Human)) (chain, as listed by the source limits assumed, chain 2 of 2): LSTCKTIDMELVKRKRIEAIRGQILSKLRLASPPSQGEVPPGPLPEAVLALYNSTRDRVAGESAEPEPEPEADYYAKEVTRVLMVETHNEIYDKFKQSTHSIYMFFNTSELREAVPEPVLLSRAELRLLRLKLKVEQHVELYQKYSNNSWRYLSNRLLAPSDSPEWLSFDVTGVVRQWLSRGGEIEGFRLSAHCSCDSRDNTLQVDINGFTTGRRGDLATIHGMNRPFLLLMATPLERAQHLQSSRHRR
# [7] = molecular target: human GARP-proTGF-β1 (membrane-bound GARP with proTGF-β1, on transfected cells) (human) (UniProt Q14392); test: flow cytometry on 300.19 cells stably expressing the complex; MFI minus control 300.19 cells; one-site binding fit
# Sequence of human GARP-proTGF-β1 (membrane-bound GARP with proTGF-β1, on transfected cells) (human) (Q14392 20-662 limits assumed, chain 1 of 2): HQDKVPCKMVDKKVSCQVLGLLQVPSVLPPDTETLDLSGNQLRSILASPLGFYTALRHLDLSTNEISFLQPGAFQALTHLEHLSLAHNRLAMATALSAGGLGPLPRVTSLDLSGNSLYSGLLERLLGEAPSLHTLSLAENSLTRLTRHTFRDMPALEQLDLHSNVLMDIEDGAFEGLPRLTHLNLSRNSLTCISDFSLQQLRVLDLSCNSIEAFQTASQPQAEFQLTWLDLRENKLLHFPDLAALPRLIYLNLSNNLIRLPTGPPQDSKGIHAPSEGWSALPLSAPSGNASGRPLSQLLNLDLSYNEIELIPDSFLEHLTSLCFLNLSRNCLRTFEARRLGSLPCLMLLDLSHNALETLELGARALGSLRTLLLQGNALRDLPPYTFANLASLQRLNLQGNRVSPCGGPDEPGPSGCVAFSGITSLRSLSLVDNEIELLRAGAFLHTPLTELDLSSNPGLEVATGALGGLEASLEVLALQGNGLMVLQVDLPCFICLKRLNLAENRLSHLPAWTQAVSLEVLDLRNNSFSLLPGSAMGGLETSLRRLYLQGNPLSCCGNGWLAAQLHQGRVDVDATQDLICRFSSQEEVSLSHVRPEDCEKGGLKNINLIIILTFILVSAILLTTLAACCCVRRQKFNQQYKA
# [8] = molecular target: human GARP-TGF-β1 LAP (membrane-bound GARP with TGF-β1 LAP, on 300.19 cells) (human) (UniProt Q14392); test: as above
# Sequence of human GARP-TGF-β1 LAP (membrane-bound GARP with TGF-β1 LAP, on 300.19 cells) (human) (Q14392 20-662 limits assumed, chain 1 of 2): as above
# [9] = molecular target: human GARP-proTGF-β1 (membrane-bound GARP with proTGF-β1, on transfected cells) (human) (UniProt Q14392); test: cell-based or functional assay
# [10] = molecular target: human LTBP1 plus proTGF-β1, expressed by transiently transfected SW480 or HEK293 cells (human) (UniProt Q14766); test: cell-based or functional assay
# Sequence of human LTBP1 plus proTGF-β1, expressed by transiently transfected SW480 or HEK293 cells (human) (Q14766 347-1721 limits assumed, chain 1 of 2): as the sequence (Q14766 347-1721 limits assumed, chain 1 of 2) above
# Sequence of biotinylated His-tagged TGF-β1 LAP C4S (Homo sapiens (Human)) (P01137 other isoform, or with tags, fused parts or gaps limits assumed): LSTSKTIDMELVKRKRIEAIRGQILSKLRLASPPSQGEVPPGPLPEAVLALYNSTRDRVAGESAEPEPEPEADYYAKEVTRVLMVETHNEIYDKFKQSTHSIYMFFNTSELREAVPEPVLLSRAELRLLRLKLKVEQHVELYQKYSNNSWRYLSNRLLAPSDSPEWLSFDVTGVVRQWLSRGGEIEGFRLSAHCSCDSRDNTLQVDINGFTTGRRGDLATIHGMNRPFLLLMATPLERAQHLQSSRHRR
Substance,RFU [1] [RFU],RFU [2] [RFU],RFU [3] [RFU],Kd [4] [nM],Kd [5] [nM],Kd [6] [nM],Kd [7] [µg/mL],Kd [8] [µg/mL],"reporter activity (TMLC luciferase, RLU), 20 or 50 µg/ml MAB246 [9] [fold]","RLUs (TMLC luciferase), with αvβ6-expressing cells and 20 or 50 µg/ml MAB246 [10] [fold]","reporter activity (TMLC luciferase, RLU), 20 µg/ml MAB246 [10] [fold]","reporter activity (TMLC luciferase, RLU), 50 µg/ml MAB246 [10] [fold]","RLUs (TMLC luciferase), no antibody [10] [fold]"
"9016.2 (mouse monoclonal anti-TGF-β LAP antibody, Abcam, Cambridge, UK)",4540,14600,3310,,,,,,,,,,
"MAB246 (R&D Systems, Minneapolis, Minn.), mouse IgG1 anti-TGF-β1 LAP antibody, clone 27235",24900,26800,18800,0.91,0.24,0.14,35.1,0.08,< 2,3.5,2,> 2.5,
"MAB2463 (R&D Systems, Minneapolis, Minn.), mouse IgG1 anti-TGF-β1 LAP antibody, clone 27232",42100,57500,32000,,,,0.19,0.11,,,,,
"αvβ6 integrin (on cells, e.g. SW480-β6 cells) (from UniProt P06756 31-1048; P18564 22-788) (receptor)",,,,,,,,,,,,,2.5

# From patent US20170073406A1
